According to patent US7807381B2, “Methods for assessing CDK5 activation and function” (The Board of Regents of the University of Texas System, priority 2007, dated 2010):

Assays:
Cdk5 = Cdk5 (Homo sapiens, UniProt Q00535); test: in vitro phosphorylation reactions with Cdk5 and test substrate protein phosphatase inhibitor-1; assay type: biochemical; settings: preliminary data
Procedure: (§1) FIGS. 5A-B—NMDA receptor activation inhibits Cdk5 and the cytoplasmic domain is a Cdk5 inhibitor. (FIG. 5A) Reduction in phosphorylation of three Cdk5 sites by NMDA. Quantitative immunoblot analyses is shown of acute striatal slices incubated with NMDA for the doses and times indicated, n=3-12. *p<0.05; **p<0.01 vs. control, one-way ANOVA with Dunnett's multiple comparison test. (FIG. 5B) Inhibition of Cdk5-dependent phosphorylation of inhibitor-1 by NR2B as assessed by time-course (top), dose-response (middle), and Line-Weaver Burke (bottom) analyses of in vitro phosphorylation reactions conducted in the presence of the indicated inhibitors or control proteins.
To determine if these observations were related, the inventors conducted in vitro phosphorylation reactions with Cdk5 and a test substrate, protein phosphatase inhibitor-1. […] Kinetic analysis confirmed that the NR2B receptor cytoplasmic domain functions as a potent and selective inhibitor of Cdk5 (IC50˜4 μM) and indicated a noncompetitive inhibition mechanism. […]
Cdk5 phosphorylation activity assays may generally comprise ^32P-incoporation into substrates as determined by phosphorimager analysis. Alternatively, phosphorylation may be detected by either Western blot or ELISA using a control Cdk5 substrate and a phosphorylation state-specific antibody to a Cdk5 phosphorylation site on the substrate. […]

Cdk5 sites = test: Quantitative immunoblot of Cdk5-site phosphorylation in acute striatal slices incubated with NMDA; assay type: cell-based; settings: NMDA at doses and times indicated, n=3-12
Procedure: as §1
To determine if these observations were related, the inventors conducted in vitro phosphorylation reactions with Cdk5 and a test substrate, protein phosphatase inhibitor-1. […] Kinetic analysis confirmed that the NR2B receptor cytoplasmic domain functions as a potent and selective inhibitor of Cdk5 (IC50˜4 μM) and indicated a noncompetitive inhibition mechanism. […] These new data further confirm that NR2B can block Cdk5 activity, and further, that these interactions may be targeted for disruption so that Cdk5 may be uncoupled from NMDA receptors.

Chain of Cdk5 (Q00535 whole entry, species assumed, the tested form may be a part): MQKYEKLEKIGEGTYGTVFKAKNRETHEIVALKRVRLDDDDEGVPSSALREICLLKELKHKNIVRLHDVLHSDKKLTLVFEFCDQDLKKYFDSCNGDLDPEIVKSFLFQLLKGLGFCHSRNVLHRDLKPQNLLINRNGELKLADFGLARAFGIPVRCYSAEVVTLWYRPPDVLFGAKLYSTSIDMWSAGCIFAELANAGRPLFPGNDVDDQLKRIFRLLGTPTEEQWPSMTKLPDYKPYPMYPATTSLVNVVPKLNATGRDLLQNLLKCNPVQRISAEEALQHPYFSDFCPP

| Molecule | inhibition of Cdk5 (qualitative) (Cdk5) | phosphorylation of three Cdk5 sites (Cdk5 sites) |
| --- | --- | --- |
| peptide encompassing amino acid residues 1101-1130 of NR2B: a peptide encompassing amino acid residues 1101-1130 of NR2B (EFDEIELAYRRRPPRSPDHKRYFRDKEGLR; UniProt Q13224 1101-1130, looked up, fragment) | effective inhibitor |  |
| CN[C@H](CC(=O)O)C(=O)O [NMDA] |  | Reduction |
